Reference: publication PMC10786891, “Massively parallel profiling of RNA-targeting CRISPR-Cas13d”

T1: EsCas13d, nuclease-dead (Eubacterium siraeum, UniProt B0MS50, R295A;H300A;R849A;H854A)
T1 sequence: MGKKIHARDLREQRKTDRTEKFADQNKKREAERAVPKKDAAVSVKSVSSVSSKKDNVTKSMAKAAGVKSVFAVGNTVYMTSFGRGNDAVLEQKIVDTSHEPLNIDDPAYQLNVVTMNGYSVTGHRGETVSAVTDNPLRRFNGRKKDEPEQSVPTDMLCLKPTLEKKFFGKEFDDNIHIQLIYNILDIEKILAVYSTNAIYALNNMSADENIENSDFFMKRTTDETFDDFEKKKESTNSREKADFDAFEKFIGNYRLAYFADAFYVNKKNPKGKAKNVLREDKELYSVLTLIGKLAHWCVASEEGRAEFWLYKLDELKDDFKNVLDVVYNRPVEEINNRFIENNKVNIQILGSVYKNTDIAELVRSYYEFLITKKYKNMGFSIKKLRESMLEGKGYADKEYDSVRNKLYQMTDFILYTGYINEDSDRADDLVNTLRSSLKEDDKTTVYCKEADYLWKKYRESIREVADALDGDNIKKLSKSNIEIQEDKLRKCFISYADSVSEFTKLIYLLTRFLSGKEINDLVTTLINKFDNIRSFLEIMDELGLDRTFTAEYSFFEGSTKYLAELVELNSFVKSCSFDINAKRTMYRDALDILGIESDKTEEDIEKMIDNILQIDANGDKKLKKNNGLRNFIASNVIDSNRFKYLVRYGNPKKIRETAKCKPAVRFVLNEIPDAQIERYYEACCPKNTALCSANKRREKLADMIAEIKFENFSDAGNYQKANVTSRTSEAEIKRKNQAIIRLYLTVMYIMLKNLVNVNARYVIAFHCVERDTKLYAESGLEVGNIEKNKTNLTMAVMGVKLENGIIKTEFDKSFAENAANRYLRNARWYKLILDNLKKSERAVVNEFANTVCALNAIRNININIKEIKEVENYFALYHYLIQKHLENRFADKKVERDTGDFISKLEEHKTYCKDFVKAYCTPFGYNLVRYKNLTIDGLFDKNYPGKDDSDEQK

B1: target 1 MT 5'PFS CCA 3'PFS CAG (mixed)
RNA 1: CACCCGUGCAAAAAUGCAGGGGUCUAAAACUGAGCGGAUAACCUCUCUAUGG
RNA 2: GGGAAUGGAUCCACAUCUACGAAUUCCCACCAUAGAGAGGUUAUCCGCUCACAGAGAUCGGAAGAGCACACGU
B2: target 1 MT 5'PFS CAA 3'PFS AUA (mixed)
RNA 1: CACCCGUGCAAAAAUGCAGGGGUCUAAAACUGAGCGGAUAACCUCUCUAUGG
RNA 2: GGGAAUGGAUCCACAUCUACGAAUUCCAACCAUAGAGAGGUUAUCCGCUCAAUAAGAUCGGAAGAGCACACGU
B3: target 1 MT 5'PFS GAC 3'PFS UCA (mixed)
RNA 1: CACCCGUGCAAAAAUGCAGGGGUCUAAAACUGAGCGGAUAACCUCUCUAUGG
RNA 2: GGGAAUGGAUCCACAUCUACGAAUUCGACCCAUAGAGAGGUUAUCCGCUCAUCAAGAUCGGAAGAGCACACGU
B4: target 1 MT 5'PFS CCG 3'PFS UAA (mixed)
RNA 1: CACCCGUGCAAAAAUGCAGGGGUCUAAAACUGAGCGGAUAACCUCUCUAUGG
RNA 2: GGGAAUGGAUCCACAUCUACGAAUUCCCGCCAUAGAGAGGUUAUCCGCUCAUAAAGAUCGGAAGAGCACACGU
B5: target 1 MT 5'PFS GCG 3'PFS CAA (mixed)
RNA 1: CACCCGUGCAAAAAUGCAGGGGUCUAAAACUGAGCGGAUAACCUCUCUAUGG
RNA 2: GGGAAUGGAUCCACAUCUACGAAUUCGCGCCAUAGAGAGGUUAUCCGCUCACAAAGAUCGGAAGAGCACACGU
B6: target 1 MT 5'PFS GUC 3'PFS UCA (mixed)
RNA 1: CACCCGUGCAAAAAUGCAGGGGUCUAAAACUGAGCGGAUAACCUCUCUAUGG
RNA 2: GGGAAUGGAUCCACAUCUACGAAUUCGUCCCAUAGAGAGGUUAUCCGCUCAUCAAGAUCGGAAGAGCACACGU
B7: target 1 MT 5'PFS UUA 3'PFS AGU (mixed)
RNA 1: CACCCGUGCAAAAAUGCAGGGGUCUAAAACUGAGCGGAUAACCUCUCUAUGG
RNA 2: GGGAAUGGAUCCACAUCUACGAAUUCUUACCAUAGAGAGGUUAUCCGCUCAAGUAGAUCGGAAGAGCACACGU
B8: target 1 MT 5'PFS GUC 3'PFS UCG (mixed)
RNA 1: CACCCGUGCAAAAAUGCAGGGGUCUAAAACUGAGCGGAUAACCUCUCUAUGG
RNA 2: GGGAAUGGAUCCACAUCUACGAAUUCGUCCCAUAGAGAGGUUAUCCGCUCAUCGAGAUCGGAAGAGCACACGU
B9: target 1 MT 5'PFS GUC 3'PFS AAG (mixed)
RNA 1: CACCCGUGCAAAAAUGCAGGGGUCUAAAACUGAGCGGAUAACCUCUCUAUGG
RNA 2: GGGAAUGGAUCCACAUCUACGAAUUCGUCCCAUAGAGAGGUUAUCCGCUCAAAGAGAUCGGAAGAGCACACGU
B10: target 1 MT 5'PFS CCG 3'PFS UAC (mixed)
RNA 1: CACCCGUGCAAAAAUGCAGGGGUCUAAAACUGAGCGGAUAACCUCUCUAUGG
RNA 2: GGGAAUGGAUCCACAUCUACGAAUUCCCGCCAUAGAGAGGUUAUCCGCUCAUACAGAUCGGAAGAGCACACGU
B11: target 1 MT 5'PFS CUC 3'PFS UAA (mixed)
RNA 1: CACCCGUGCAAAAAUGCAGGGGUCUAAAACUGAGCGGAUAACCUCUCUAUGG
RNA 2: GGGAAUGGAUCCACAUCUACGAAUUCCUCCCAUAGAGAGGUUAUCCGCUCAUAAAGAUCGGAAGAGCACACGU
B12: target 1 MT 5'PFS GCG 3'PFS CAG (mixed)
RNA 1: CACCCGUGCAAAAAUGCAGGGGUCUAAAACUGAGCGGAUAACCUCUCUAUGG
RNA 2: GGGAAUGGAUCCACAUCUACGAAUUCGCGCCAUAGAGAGGUUAUCCGCUCACAGAGAUCGGAAGAGCACACGU
B13: target 1 MT 5'PFS UAA 3'PFS ACU (mixed)
RNA 1: CACCCGUGCAAAAAUGCAGGGGUCUAAAACUGAGCGGAUAACCUCUCUAUGG
RNA 2: GGGAAUGGAUCCACAUCUACGAAUUCUAACCAUAGAGAGGUUAUCCGCUCAACUAGAUCGGAAGAGCACACGU
B14: target 1 C2G,G17A (mixed)
RNA 1: CACCCGUGCAAAAAUGCAGGGGUCUAAAACUGAGCGGAUAACCUCUCUAUGG
RNA 2: GGGAAUGGAUCCACAUCUACGAAUUCGUACCAUAAAGAGGUUAUCCGCUGACCGAGAUCGGAAGAGCACACGU
B15: target 1 MT 5'PFS CCG 3'PFS UAU (mixed)
RNA 1: CACCCGUGCAAAAAUGCAGGGGUCUAAAACUGAGCGGAUAACCUCUCUAUGG
RNA 2: GGGAAUGGAUCCACAUCUACGAAUUCCCGCCAUAGAGAGGUUAUCCGCUCAUAUAGAUCGGAAGAGCACACGU
B16: target 1 MT 5'PFS GUC 3'PFS UCC (mixed)
RNA 1: CACCCGUGCAAAAAUGCAGGGGUCUAAAACUGAGCGGAUAACCUCUCUAUGG
RNA 2: GGGAAUGGAUCCACAUCUACGAAUUCGUCCCAUAGAGAGGUUAUCCGCUCAUCCAGAUCGGAAGAGCACACGU
B17: target 1 insA 3' of 4,insU 3' of 4 (mixed)
RNA 1: CACCCGUGCAAAAAUGCAGGGGUCUAAAACUGAGCGGAUAACCUCUCUAUGG
RNA 2: GGGAAUGGAUCCACAUCUACGAAUUCGUACCAUAGAGAGGUUAUCCGCAUUCACCGAGAUCGGAAGAGCACACGU
B18: target 1 MT 5'PFS CAA 3'PFS AUC (mixed)
RNA 1: CACCCGUGCAAAAAUGCAGGGGUCUAAAACUGAGCGGAUAACCUCUCUAUGG
RNA 2: GGGAAUGGAUCCACAUCUACGAAUUCCAACCAUAGAGAGGUUAUCCGCUCAAUCAGAUCGGAAGAGCACACGU
B19: target 1 MT 5'PFS GAC 3'PFS UCU (mixed)
RNA 1: CACCCGUGCAAAAAUGCAGGGGUCUAAAACUGAGCGGAUAACCUCUCUAUGG
RNA 2: GGGAAUGGAUCCACAUCUACGAAUUCGACCCAUAGAGAGGUUAUCCGCUCAUCUAGAUCGGAAGAGCACACGU
B20: target 1 MT 5'PFS UAA 3'PFS ACA (mixed)
RNA 1: CACCCGUGCAAAAAUGCAGGGGUCUAAAACUGAGCGGAUAACCUCUCUAUGG
RNA 2: GGGAAUGGAUCCACAUCUACGAAUUCUAACCAUAGAGAGGUUAUCCGCUCAACAAGAUCGGAAGAGCACACGU
B21: target 1 MT 5'PFS GAC 3'PFS UCG (mixed)
RNA 1: CACCCGUGCAAAAAUGCAGGGGUCUAAAACUGAGCGGAUAACCUCUCUAUGG
RNA 2: GGGAAUGGAUCCACAUCUACGAAUUCGACCCAUAGAGAGGUUAUCCGCUCAUCGAGAUCGGAAGAGCACACGU
B22: target 1 MT 5'PFS GAC 3'PFS UCC (mixed)
RNA 1: CACCCGUGCAAAAAUGCAGGGGUCUAAAACUGAGCGGAUAACCUCUCUAUGG
RNA 2: GGGAAUGGAUCCACAUCUACGAAUUCGACCCAUAGAGAGGUUAUCCGCUCAUCCAGAUCGGAAGAGCACACGU
B23: target 1 MT 5'PFS CCG 3'PFS UAG (mixed)
RNA 1: CACCCGUGCAAAAAUGCAGGGGUCUAAAACUGAGCGGAUAACCUCUCUAUGG
RNA 2: GGGAAUGGAUCCACAUCUACGAAUUCCCGCCAUAGAGAGGUUAUCCGCUCAUAGAGAUCGGAAGAGCACACGU
B24: target 1 MT 5'PFS GCG 3'PFS CAU (mixed)
RNA 1: CACCCGUGCAAAAAUGCAGGGGUCUAAAACUGAGCGGAUAACCUCUCUAUGG
RNA 2: GGGAAUGGAUCCACAUCUACGAAUUCGCGCCAUAGAGAGGUUAUCCGCUCACAUAGAUCGGAAGAGCACACGU
B25: target 1 MT 5'PFS UAA 3'PFS ACG (mixed)
RNA 1: CACCCGUGCAAAAAUGCAGGGGUCUAAAACUGAGCGGAUAACCUCUCUAUGG
RNA 2: GGGAAUGGAUCCACAUCUACGAAUUCUAACCAUAGAGAGGUUAUCCGCUCAACGAGAUCGGAAGAGCACACGU
B26: target 1 G15A,C21U (mixed)
RNA 1: CACCCGUGCAAAAAUGCAGGGGUCUAAAACUGAGCGGAUAACCUCUCUAUGG
RNA 2: GGGAAUGGAUCCACAUCUACGAAUUCGUACUAUAGAAAGGUUAUCCGCUCACCGAGAUCGGAAGAGCACACGU
B27: target 1 MT 5'PFS GUC 3'PFS UCU (mixed)
RNA 1: CACCCGUGCAAAAAUGCAGGGGUCUAAAACUGAGCGGAUAACCUCUCUAUGG
RNA 2: GGGAAUGGAUCCACAUCUACGAAUUCGUCCCAUAGAGAGGUUAUCCGCUCAUCUAGAUCGGAAGAGCACACGU
B28: target 1 MT 5'PFS GUC 3'PFS AAA (mixed)
RNA 1: CACCCGUGCAAAAAUGCAGGGGUCUAAAACUGAGCGGAUAACCUCUCUAUGG
RNA 2: GGGAAUGGAUCCACAUCUACGAAUUCGUCCCAUAGAGAGGUUAUCCGCUCAAAAAGAUCGGAAGAGCACACGU

target: T1, EsCas13d, nuclease-dead; assay: crRNA (strand 1, pre-loaded); Mg2+; 40 mM Tris-HCl pH 7.5, 150 mM NaCl, 6 mM MgCl2, 1 mM DTT, 0.1% Tween-20, 0.2 mg/ml BSA; 25 C; 10 min per concentration, then washed; conditions: tags: His6-TwinStrep-SUMO cleaved; N-terminal SNAP kept (SNAP-Surface 488); label: 3' end held by stalled T7 RNA polymerase

Point of comparison: B8, Kd 14.4 ± 2.7 nM. Against it:
- B1 — 3.4-fold lower, 4.25 ± 1.3 nM
- B2 — within error, 17.5 ± 7.5 nM
- B3 — within error, 16.6 ± 3.5 nM
- B4 — within error, 14.2 ± 4.6 nM
- B5 — 3.4-fold higher, 49.5 ± 24.5 nM
- B6 — within error, 18.5 ± 5.5 nM
- B7 — 5.2-fold higher, 74.5 ± 29 nM
- B9 — within error, 20.5 ± 5.5 nM
- B10 — 5.1-fold lower, ~2.85 nM
- B11 — 4.1-fold higher, 59 ± 25 nM
- B12 — 3.9-fold higher, ~56.5 nM
- B13 — 2-fold higher, 29 ± 7 nM
- B14 — 1.7-fold higher, 25 ± 1.9 nM
- B15 — 4.5-fold lower, 3.2 ± 1 nM
- B16 — within error, 11.2 ± 3.1 nM
- B17 — within error, 12.4 ± 1.6 nM
- B18 — 2.3-fold higher, ~32.5 nM
- B19 — within error, 12.8 ± 4.8 nM
- B20 — 3-fold higher, 43.5 ± 17.5 nM
- B21 — within error, 13.2 ± 1.9 nM
- B22 — within error, 23 ± 9.3 nM
- B23 — 4.3-fold lower, 3.35 ± 0.595 nM
- B24 — 2-fold higher, ~29 nM
- B25 — 1.7-fold higher, 25 ± 4.5 nM
- B26 — 2.1-fold lower, 6.9 ± 0.4 nM
- B27 — within error, 16.1 ± 3.15 nM
- B28 — 2.6-fold higher, 38 ± 8 nM
